How the values were obtained:
[1] = target: Rous sarcoma virus (RSV) integrase, WT full-length IN (1–286 aa), Prague A (Rous sarcoma virus (Prague A)); assay: not stated; oligomeric state of free purified IN proteins, without DNA; shown in Fig. S5, method and conditions not given
[2] = target: Rous sarcoma virus integrase IN (1–278), C-terminal tail truncation (Rous sarcoma virus (Prague A)); assay: cryo-EM structure; STC intasome assembled from IN (1–278) 35 μM and the viral/target DNA substrate 10 μM by dialysis, purified by SEC in 20 mM HEPES pH 7.5, 650 mM NaCl, 1 mM TCEP; single particle, C2 symmetry, 3.36 Å; the IN oligomer stands on two DNA substrates
[3] = target: Rous sarcoma virus integrase IN (1–286) R244A (Rous sarcoma virus (Prague A)); assay: not stated; oligomeric state of free purified IN proteins, without DNA; shown in Fig. S5, method and conditions not given
[4] = target: Rous sarcoma virus integrase IN (1–286) R244E (Rous sarcoma virus (Prague A)); assay: as above
[5] = target: Rous sarcoma virus integrase IN (1–286) Y246A (Rous sarcoma virus (Prague A)); assay: as above
[6] = target: T1, RSV IN (1-278) (Rous sarcoma virus, Prague A, UniProt P03354 1281-1558); assay: cryo-EM (3.36 A); SEC; Zn2+ and Mg2+ listed in structure table; octameric STC; STC (IN 1-278, cryo-EM prep): 35 uM IN + 10 uM DNA in 20 mM HEPES pH 7.5, 1 M NaCl, 20% glycerol, 1 mM TCEP, dialyzed to 0.125 M NaCl, solubilized at 0.75 M NaCl; SEC in 20 mM HEPES pH 7.5, 650 mM NaCl, 1 mM TCEP. Mutant STC 18 h at 4 C; CSC with MK-2048 18 h at 18 C (buffer not in material); settings: protein: recombinant; chain copies: 8; branched; S2 pairs with S1[1-20] leaving 5' AA unpaired; S3 pairs with S1[27-42]; self-complementary S1[21-26]; GTGCAC pairs two copies; 2 copies of each strand in STC
T1 sequence: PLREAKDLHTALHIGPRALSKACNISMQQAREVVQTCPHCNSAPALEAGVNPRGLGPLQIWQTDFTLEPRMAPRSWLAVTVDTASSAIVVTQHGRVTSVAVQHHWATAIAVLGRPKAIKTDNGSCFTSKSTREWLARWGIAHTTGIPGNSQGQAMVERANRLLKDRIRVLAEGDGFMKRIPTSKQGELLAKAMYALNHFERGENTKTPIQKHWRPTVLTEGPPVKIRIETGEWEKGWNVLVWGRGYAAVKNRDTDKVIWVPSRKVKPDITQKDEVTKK

Rous sarcoma virus (RSV) integrase, WT full-length IN (1–286 aa), Prague A (enzyme)
stoichiometry N [1]: 2

Rous sarcoma virus integrase IN (1–278), C-terminal tail truncation (enzyme)
stoichiometry N [2]: 8

Rous sarcoma virus integrase IN (1–286) R244A (enzyme)
stoichiometry N [3]: 2

Rous sarcoma virus integrase IN (1–286) R244E (enzyme)
stoichiometry N [4]: 2

Rous sarcoma virus integrase IN (1–286) Y246A (enzyme)
stoichiometry N [5]: 2

B1: RSV STC substrate (viral/target DNA) (mixed)
DNA 1: GAGTATTGCATAAGACAACAGTGCACGAAAGAAGAAGACACT
DNA 2: AATGTTGTCTTATGCAATACTC
DNA 3: AGTGTCTTCTTCTTTC
binding result [6]: binds
